In patent publication US20260146089A1 (published 2026):
Changes are numbered by the printed parent chain.

B1: 01F05 C01 (antibody, V domains shown)
VH: QVQLVQSGAEVKKPGASVKVSCKASGYTFTAYYIHWVRQAPGQGLEWMGWINPNSGGTNYAQMFQGRVTMTRDTSISAAYMELSRLSSDDTAVYYCTRGTPRYNWKSYNYGMDVWGQGTTVTVSS
VL: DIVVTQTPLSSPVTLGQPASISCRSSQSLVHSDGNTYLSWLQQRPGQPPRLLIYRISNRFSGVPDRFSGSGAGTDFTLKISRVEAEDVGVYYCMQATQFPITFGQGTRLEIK
B2: 01B08 B01 (antibody, V domains shown)
VH: QVQLVQSGAEVKKPGASVKVSCKAAGYTFTGYYMHWVRQAPGQGLEWMGWINPYRSGTNFAQKFQDRVTMTRDTSISTAYMELSSLSSDDTAIYYCARGAGTTFYNAFDIWGQGTMVTVSS
VL: DIQMTQSPSAMSASVGDRVTITCRASQGINNYLAWFQQKPGKVPKRLIYAASSLQSGVPSRFSGSGSGTEFTLTISSLQPEDFATYYCLQHNRYPFTFGPGTKVDIK
B3: 08B12 (antibody, V domains shown)
VH: EVQVVESGGGLVKPGGSLRLSCVASGFTFKKYNMNWVRQAPGKGLEWVSSISSSSTYIYYADSVKGRFTISRDNAKNSLNLQMNSLRAEDTAVYYCAGGGYFDYWGQGTLVTVSS
B4: 13D02 (antibody, V domains shown)
VH: B3 VH with V4L, V23A, K30S, K31R, Y32F, A40T, S54R, T56S, N77K, N80Y
VL: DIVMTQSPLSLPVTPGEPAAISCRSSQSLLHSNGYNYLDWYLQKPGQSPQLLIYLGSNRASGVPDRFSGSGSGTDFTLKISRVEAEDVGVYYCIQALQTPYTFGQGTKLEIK
B5: 11A10 (antibody, V domains shown)
VH: EVQLVESGRGLVQPGGSLRLSCAASGFTFSSYWMSWVRQAPGKGLEWVANIKEDGSEKYYVDSVKGRFTISRDNAKNSLYLQMNSLRAEDTAVYYCARERREGYFDYWGQGTLVTVSS
VL: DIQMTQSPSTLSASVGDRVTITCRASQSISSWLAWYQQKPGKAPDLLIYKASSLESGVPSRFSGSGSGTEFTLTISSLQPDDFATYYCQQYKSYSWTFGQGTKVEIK
B6: 06G07 A04 (antibody, V domains shown)
VH: B5 VH with R9G, Y32F, Y80F, E102T
VL: DIQMTQSSSTLSASVGDRVTITCRASQSIGSWLAWFQQKPGKAPKLLIYKASSLESGVPSRFSGSGSGTEFTLTISSLQPDDFAIYYCQQYKSYSWTFGQGTKVEIK
B7: 08G12 (antibody, V domains shown)
VH: B5 VH with R9G, P14S, S31R, Y32F, S35T, A75T
VL: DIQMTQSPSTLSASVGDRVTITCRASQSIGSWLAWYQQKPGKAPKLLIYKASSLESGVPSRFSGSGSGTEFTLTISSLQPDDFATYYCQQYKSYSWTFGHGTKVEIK
B8: 13E03 antibody (antibody, V domains shown)
VH: B5 VH with V2I, R9G, A40T, Y60H, F68Y, N84S, E89D, L113V, V116A
VL: B6 VL with S8P, S31R, F36Y, K45D, S65G, I85T, I106V
B9: 07B09 (antibody, V domains shown)
VH: B5 VH with R9G, S35T, I51M, K52R, E53K, Q82H, R101S, E102T, T115I
VL: DIQMTQSPSTLSASVGDRVTITCRASQRISTWLAWYQQKAGKAPKLLIYKASSLESGVPSRFSGSGSGTEFTLTIRSLEPDDFATYYCQQYISYTWTFGQGTKVEIK
B10: 12C08 antibody (antibody, V domains shown)
VH: B5 VH with V2E, R9G, L20F, A23E, A24V, S30R, Y107Q
VL: B6 VL with S8P, S14F, F36Y, K45D, I85T
B11: 11B11 (antibody, V domains shown)
VH: B5 VH with R9G, S35T, L81V, V93I
VL: B6 VL with S8P, T10I, V19A, S28R, G30S, S31T, I85T
B12: OKT3 (antibody, V domains shown)
VH: QVQLVQSGGGVVQPGRSLRLSCKASGYTFTRYTMHWVRQAPGKGLEWIGYINPSRGYTNYNQKFKDRFTISRDNSKNTAFLQMDSLRPEDTGVYFCARYYDDHYCLDYWGQGTPVTVSS
VL: DIQMTQSPSSLSASVGDRVTITCSASSSVSYMNWYQQTPGKAPKRWIYDTSKLASGVPSRFSGSGSGTDYTFTISSLQPEDIATYYCQQWSSNPFTFGQGTKLQITR
B13: 12C08 (antibody, V domains shown)
VH: B5 VH with V2E, R9G, L20F, A23E, A24V, S30R, Y107Q
VL: B6 VL with S8P, S14F, F36Y, K45D, I85T
B14: 13E03 (antibody, V domains shown)
VH: B5 VH with V2I, R9G, A40T, Y60H, F68Y, N84S, E89D, L113V, V116A
VL: B6 VL with S8P, S31R, F36Y, K45D, S65G, I85T, I106V

molecular target: T1, human CD3ε on the cell surface (Jurkat cells, Th1 cells) (UniProt P07766 23-207); test: FACS Jurkat

EC50	Binder
1.3 nM	B1
23 nM	B2
0.68 nM	B3
0.59 nM	B4
36 nM	B5
27 nM	B6
20 nM	B7
35 nM	B8
25 nM	B9
34 nM	B10
48 nM	B11

molecular target: T1, human CD3ε on the cell surface (Jurkat …); test: FACS Jurkat; remark: another data set of the same source

EC50	Binder
1.3 nM	B1
23 nM	B2
0.68 nM	B3
0.59 nM	B4
36 nM	B5
27 nM	B6
20 nM	B7
35 nM	B8
25 nM	B9
34 nM	B10
48 nM	B11

molecular target: T2, Jurkat (UniProt P07766 23-207); test: FACS Jurkat

EC50	Binder
0.55 nM	B12

molecular target: T2, Jurkat; test: FACS Jurkat; remark: another data set of the same source

EC50	Binder
0.55 nM	B12

molecular target: CD3ε/δ heterodimer; test: sensorgram

koff	Binder
0.000334 s⁻¹	B13
0.00198 s⁻¹	B14
